Assay [1] deals with amyloid β-derived diffusible ligands (ADDLs), oligomers of Aβ1-42. Nature of the assay: BIACORE (SPR). Background: Surface plasmon resonance follows binding to a sensor surface in real time, without labels.
Assay [2] addresses Aβ1-40 monomer. The assay is described as follows: BIACORE (SPR).
Assay [3] addresses amyloid β-derived diffusible ligands (ADDLs), oligomers of Aβ1-42. Nature of the assay: sandwich ELISA on ERENNA, 19.3 on beads as capture, labelled 7305 as detection; ADDLs 5.00 pM in standards diluent. Background: ELISA stands for enzyme-linked immunosorbent assay.
Assay [4] concerns the target Aβ1-40 monomer. The assay is described as follows: ELISA on coated antigen; antibody kept at 40° for 1 month.
The target in assay [5] is Aβ1-40 monomer. The assay is described as follows: ELISA on coated antigen; antibody at 0 timepoint.
The target of assay [6] is amyloid β-derived diffusible ligands (ADDLs), oligomers of Aβ1-42. The assay is described as follows: sandwich ELISA on ERENNA, 19.3 on beads as capture, labelled 7305 as detection; ADDLs 1.67 pM in standards diluent.
Assay [7] has the same target. The assay is described as follows: competitive ELISA (ratio of the two EC50).
Assay [8] deals with Aβ1-40 monomer. The assay is described as follows: one-sided ELISA, plate coated with Aβ1-40 100 pmol/well (FIG. 5A).
Assay [9] has as its target Aβ1-40 monomer. The assay is described as follows: ELISA on coated antigen; antibody kept at 4° for 1 month.
The target of assay [10] is Aβ1-40 monomer. Nature of the assay: ELISA on coated antigen; antibody kept at 25° for 1 month.
Assay [11] deals with amyloid β-derived diffusible ligands (ADDLs), oligomers of Aβ1-42. Nature of the assay: ELISA, IgG2.
For assay [12] the target is unchanged. Nature of the assay: one-sided ELISA, plate coated with Aβ oligomers 50 pmol/well (FIG. 5A).
For assay [13], the target named is Aβ1-40 monomer. Nature of the assay: sandwich ELISA on ERENNA, 19.3 capture, 7305 detection.
In assay [14] the target is amyloid β-derived diffusible ligands (ADDLs), oligomers of Aβ1-42. The assay is described as follows: KINEXA, equilibrium in solution.
Assay [15] addresses Aβ1-40 monomer. The assay is described as follows: KINEXA, equilibrium in solution.
Assay [16] deals with amyloid β-derived diffusible ligands (ADDLs), oligomers of Aβ1-42. Nature of the assay: sandwich ELISA on ERENNA, 19.3 on beads as capture, labelled 7305 as detection; ADDLs 0.19 pM in standards diluent.
Assay [17] shares this target. The assay is described as follows: sandwich ELISA on ERENNA, 19.3 on beads as capture, labelled 7305 as detection; ADDLs 0.56 pM in standards diluent.
Assay [18] addresses Aβ1-40 monomer. The assay is described as follows: sandwich ELISA on ERENNA, 19.3 capture, 82E1 detection.
Assay [19] concerns the target Aβ1-20. Nature of the assay: solution-based binding assay, free antibody by ELISA, GRAFIT fit.

The results in this text go back to patent US20150260731A1.

Aβ1-20, sequence (peptide, as listed by the source): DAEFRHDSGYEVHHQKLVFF

As to anti-ADDL antibody 19.3, the Kd (as a rule, the constant that tells how readily two partners part at equilibrium) worked out at 4.8 nM in assay [1], 150 nM in [2], 2.7 nM in assay [14] and 16.7 nM in [15]. For the same substance, the DE Mean (detected events mean) (detected events) came to 5580 in assay [3], 1940 in [6], 324 in assay [16] and 691 in assay [17]. Moreover, the EC50 (commonly the concentration giving half of the maximal effect) in [4] came to 88.8 nM; in assay [5], 10.1 nM; in assay [8], 4.3 nM; in assay [9] it was 16.3 nM; in [10] it was 22.1 nM; in assay [11], 0.8 nM. In addition, the EC50 in assay [12] worked out at 1.6 nM. Further, the affinity for Aβ1-42 oligomers compared to Aβ1-40 monomers in [7] stood at 630. Besides, the Aβ40 monomer Cross Reactivity in assay [13] was determined as 0.02%; in assay [18], 0.04%.

In [19], WO-2 (antibody) had a Kd of 19.3 nM.
